Article PMC6435465

What was measured:
[1] = target: chlorinated and reduced SAYabJ (HOCl-treated, then DTT-reduced YabJ from S. aureus Mu50) (Staphylococcus aureus Mu50); experiment: SDS/PAGE; 12% polyacrylamide gel, samples treated with 1% SDS and 5% 2-mercaptoethanol at 100°C for 5 min; trimer band at 50 kDa, monomer band at 16 kDa
[2] = target: YabJ from Staphylococcus aureus Mu50 (SAV0497), native recombinant (Staphylococcus aureus Mu50); experiment: crystal structure; 1.75 Å, space group P2(1), six molecules per asymmetric unit; crystals from 25% PEG3350, 100 mM Tris/HCl pH 8.5, 293 K; interfaces calculated with PISA
[3] = target: YabJ from Staphylococcus aureus Mu50 (SAV0497), native recombinant (Staphylococcus aureus Mu50); experiment: SEC; size-exclusion chromatography of native and chemically treated SAYabJ; excess HOCl, DTT and H2O2 removed by dialysis beforehand; Superdex 75 (10/300 GL), 50 mM Tris/HCl pH 7.5, 200 mM NaCl named for the purification
[4] = target: YabJ from Staphylococcus aureus Mu50 (SAV0497), native recombinant (Staphylococcus aureus Mu50); experiment: SDS/PAGE; 12% polyacrylamide gel, samples treated with 1% SDS and 5% 2-mercaptoethanol at 100°C for 5 min; trimer band at 50 kDa, monomer band at 16 kDa

Row | stoichiometry N [2] | stoichiometry N [3] | stoichiometry N [4] | Substance | stoichiometry N [1]
1 |  |  |  | chlorinated and reduced SAYabJ (HOCl-treated, then DTT-reduced YabJ from S. aureus Mu50) (natural protein) | 3
2 | 3 | 3 | 3 | YabJ from Staphylococcus aureus Mu50 (SAV0497), native recombinant (natural protein) | 
